Four molecules from paper PMC3978094 can be followed below.

Read-outs that look alike come from different tables or passages of the source.

The target in data set [1] is T1, GATA3 DBD (N- and C-finger) (human, UniProt P23771-2 260-370). Put plainly: crystal structure.
The target in data set [2] is T1, GATA3 DBD (N- and C-finger). Put plainly: SPR. For orientation: Surface plasmon resonance follows binding to a sensor surface in real time, without labels.
The target is the same in data set [3]. Put plainly: crystal structure. The source holds these as a separate data set.
The target is the same in data set [4]. Put plainly: SPR. This is another data set of the same source.

B1: Complex 1 palindromic GATA site, 1-bp spacer, 20-mer (dsDNA)
DNA 1: AATGTCCATCTGATAAGACG
DNA 2: CGTCTTATCAGATGGACATT
Take B1: in data set [1], the binding result is reported as “binds”.

B2: palindromic GATA site SPR probe (dsDNA)
DNA 1: CTCCCGCTCGCTATCAGATAAGGCCTTAT
DNA 2: ATAAGGCCTTATCTGATAGCGAGCGGGAG
In data set [2], B2 had an equilibrium dissociation constant (Kd) of about 6 nM.

B3: Complex 2/3 palindromic GATA site, 3-bp spacer, 20-mer (dsDNA)
DNA 1: TTCCTAAATCAGAGATAACC
DNA 2: GGTTATCTCTGATTTAGGAA
On to B3, for which the binding result in data set [3] is recorded as “binds”.

B4: single GATA site SPR probe (dsDNA)
DNA 1: CTCCCGCTCGCTCAGAGATAAGGCCTTAT
DNA 2: ATAAGGCTTTATCTCTGAGCGAGCGGGAG
B4 had a Kd in data set [4] of about 60 nM.

By Kd is commonly meant the constant that tells how readily two partners part at equilibrium.
